Patent US20230265151A1, “GIP/GLP1 CO-AGONIST COMPOUNDS” (priority 2020, published 2023)
Positions count from the first letter of the chain named. *1 amine or outer side, *2 acyl side, *3 side chain or, on linkers, in order; H or OH if unused. Where no end group is shown, it is not given here. Side-chain parts run from the residue outwards. [ ]: non-standard residue; d: D form. The star is where a group is joined. Decanoyl(10-(4-HOOC-PhO)) = O=C(O)c1ccc(OCCCCCCCCCC(=O)*)cc1; αMePhe(2-F) = C[C@](N)(Cc1ccccc1F)C(=O)O; γGlu = O=C(O)[C@H](CCC(=O)[*:2])N[*:1]; αMeY = C[C@](N)(Cc1ccc(O)cc1)C(=O)O; 4Pal = N[C@@H](Cc1ccncc1)C(=O)O; αMeL = CC(C)C[C@](C)(N)C(=O)O; Lauroyl = CCCCCCCCCCCC(=O)*; Orn = NCCC[C@H](N)C(=O)O; AEEA = NCCOCCOCC(=O)O; Aib = CC(C)(N)C(=O)O

T1: human GIP receptor (human, UniProt P48546 22-466)
T1 construct: whole, on cells; also called hGIPR; human glucose-dependent insulinotropic polypeptide receptor
T1 sequence (looked up): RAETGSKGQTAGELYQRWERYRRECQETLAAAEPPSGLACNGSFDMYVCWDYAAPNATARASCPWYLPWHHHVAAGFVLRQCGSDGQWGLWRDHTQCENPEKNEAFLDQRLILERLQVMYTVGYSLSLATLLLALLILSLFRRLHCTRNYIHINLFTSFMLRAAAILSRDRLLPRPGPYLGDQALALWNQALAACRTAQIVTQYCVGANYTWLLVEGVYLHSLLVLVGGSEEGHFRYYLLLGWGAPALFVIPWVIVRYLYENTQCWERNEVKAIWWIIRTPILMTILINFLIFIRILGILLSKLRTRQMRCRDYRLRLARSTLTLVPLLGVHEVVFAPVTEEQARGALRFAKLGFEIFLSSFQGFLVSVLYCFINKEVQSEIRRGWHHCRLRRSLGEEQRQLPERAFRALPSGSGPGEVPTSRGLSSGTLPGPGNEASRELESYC

B1: Y-Aib-EGT-αMeF(2F)-TSDV-Aib-I-αMeL-LD-Orn … (peptide)
peptide: Y[Aib]EGT[αMePhe(2-F)]TSDV[Aib]I[αMeL]LD[Orn]QAQ[Aib]EFIK([AEEA-AEEA-γGlu-Decanoyl(10-(4-HOOC-PhO))])[αMeY]LIK([AEEA-AEEA-γGlu-Decanoyl(10-(4-HOOC-PhO))])GGPSSGAPPPS-NH2
B2: Y-Aib-EGT-αMeF(2F)-TSDY-Aib-I-αMeL-LD-Orn-K((2-[2-(2-Amino-ethoxy)-ethoxy]-acetyl)2-(γ-Glu)-CO-(CH2)10-CH3)AQ-Aib-EFI-(D-Glu)-αMeY-LIEGGPSSGAPPPSK((2-[2-(2-Amin … (peptide)
peptide: YXEGTXTSDYXIXLDXKAQXEFIXXLIEGGPSSGAPPPSK
modifications: Aib2, αMeF(2F)6, Aib11, αMeL13, Orn16, K17(Z1), Aib20, D-Glu24, αMeY25, K40(Z1), C-term NH2; Z1=AEEA2-(γ-Glu)-CO-(CH2)10-CH3
B3: Y-Aib-EGT-αMeF(2F)-TSD-4Pal-Aib-I-αMeL-LD-Orn-K((2-[2-(2-Amino-ethoxy)-ethoxy]-acetyl)3-(γ … (peptide)
peptide: B2 peptide with Y10X, E21X
modifications: Aib2, αMeF(2F)6, 4Pal10, Aib11, αMeL13, Orn16, K17(Z1), Aib20, Orn21, D-Glu24, αMeY25, K40(Z1), C-term NH2; Z1=AEEA3-(γ-Glu)-CO-(CH2)10-CH3
B4: Y-Aib-EGT-αMeF(2F)-TSD-4Pal-Aib-I-αMeL-LD-Orn-K((2-[2-(2-Amino-ethoxy)-ethoxy]-acetyl)-(y-Glu)-(10-(4-carboxyphenoxy)decanoyl))AQ-Aib-EFI-(D-Glu)-αMeY-LIEGGPSSG … (peptide)
peptide: B2 peptide with Y10X
modifications: Aib2, αMeF(2F)6, 4Pal10, Aib11, αMeL13, Orn16, K17(Z1), Aib20, D-Glu24, αMeY25, K40(Z1), C-term NH2; Z1=AEEA-(γ-Glu)-(10-(4-carboxyphenoxy)decanoyl)
B5: Y-Aib-EGT-αMeF(2F)-TSD-4Pal-Aib-I-αMeL-LD-Orn-K((2-[2-(2-Amino-ethoxy)-ethoxy]-acetyl)2-(γ-Glu)-CO-(CH2)10-CH3)AQ-Aib-EFI-(D-Glu)-αMeY-LIEGGPSSGAPPPSK((2-[2-(2- … (peptide)
peptide: B2 peptide with Y10X
modifications: Aib2, αMeF(2F)6, 4Pal10, Aib11, αMeL13, Orn16, K17(Z1), Aib20, D-Glu24, αMeY25, K40(Z1), C-term NH2; Z1=AEEA2-(γ-Glu)-CO-(CH2)10-CH3
B6: Y-Aib-EGT-αMeF(2F)-TSD-4Pal-Aib-I-αMeL-LD-Orn-K((2-[2-(2-Amino-ethoxy)-ethoxy]-acetyl)2-(γ-Glu)-CO-(CH2)10-CH3)AQ-Aib-Orn-FI-(D-Glu)-αMeY-LIEGGPSSGAPPPSK((2-[2- … (peptide)
peptide: B2 peptide with Y10X, E21X
modifications: Aib2, αMeF(2F)6, 4Pal10, Aib11, αMeL13, Orn16, K17(Z1), Aib20, Orn21, D-Glu24, αMeY25, K40(Z1), C-term NH2; Z1=AEEA2-(γ-Glu)-CO-(CH2)10-CH3
B7: Y-Aib-EGT-αMeF(2F)-TSD-4Pal-Aib-I-αMeL-LD-Orn-K((2-[2-(2-Amino-ethoxy)-ethoxy]-acetyl)3-(γ-Glu)-CO-(CH2)10-CH3)AQ-Aib-EFI-(D-Glu)-αMeY-LIEGGPSSGAPPPSK((2-[2-(2- … (peptide)
peptide: B2 peptide with Y10X
modifications: Aib2, αMeF(2F)6, 4Pal10, Aib11, αMeL13, Orn16, K17(Z1), Aib20, D-Glu24, αMeY25, K40(Z1), C-term NH2; Z1=AEEA3-(γ-Glu)-CO-(CH2)10-CH3
B8: Y-Aib-EGT-αMeF(2F)-TSDK((2-[2-(2-Amino-ethoxy)-ethoxy]-acetyl)2-(γ-Glu)-CO-(CH2)10-CH3)-Aib-I-αMeL-LD-Orn-K((2-[2-(2-Amino-ethoxy)-ethoxy]-acetyl)2-(γ-Glu)-CO-( … (peptide)
peptide: Y[Aib]EGT[αMePhe(2-F)]TSDK([AEEA-AEEA-γGlu-Lauroyl])[Aib]I[αMeL]LD[Orn]K([AEEA-AEEA-γGlu-Lauroyl])AQ[Aib][4Pal]FI[dE][αMeY]LIEGGPSSGAPPPS-NH2

Biological target: T2, human GLP-1 receptor (human, UniProt P43220 24-463)
T2 construct: whole, on cells; also called hGLP-1R; human glucagon-like peptide-1 receptor
Experiment: SPA competition vs [125I]-GLP-1, hGLP-1R membranes
Procedure, shortened: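 Competition binding in 25 mM HEPES pH 7.4, 2.5 mM CaCl₂, 1 mM MgCl₂, 0.1% bacitracin, 0.003% TWEEN-20, EDTA-free protease inhibitors. IC₅₀ from four-parameter nonlinear fit; Kᵢ given as geometric mean ± SEM, n = independent replicates on different days.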

Compared with B1, B2 is 2.8-fold lower in Ki: 0.382 nM for the first, 0.137 nM for the second.

Going from B3 to B4, the Ki rises from 0.122 nM to 0.765 nM (6.3-fold).

Compared with B5, B6 is 2.5-fold lower in Ki: 0.168 nM for the first, 0.0684 nM for the second.

B7 and B8 are within 1.5-fold of each other in Ki: 0.219 nM for the first, 0.156 nM for the second.

Biological target: T1, human GIP receptor
Experiment: SPA competition vs [125I]-GIP, hGIPR membranes

First: B1
Second: B2
The Ki of the first is 1.6-fold higher: 0.0369 nM for the first, 0.0228 nM for the second.

Going from B3 to B4, the Ki rises from 0.0091 nM to 0.053 nM (5.8-fold). The first binds more tightly here.

B5 and B6 are within 1.5-fold of each other in Ki: 0.0163 nM for the first, 0.0174 nM for the second.

B7 and B8 are within 1.5-fold of each other in Ki: 0.0206 nM for the first, 0.0152 nM for the second.

Biological target: T3, human glucagon receptor (human, UniProt P47871 26-477)
T3 construct: whole, on cells; also called hGCGR; hGcgR
Experiment: SPA competition vs [125I]-Gcg, hGcgR membranes
Method: The binding buffer contains 25 mM 4-(2-hydroxyethyl)-1-piperazineethanesulfonic acid (HEPES), pH 7.4, 2.5 mM CaCl₂, 1 mM MgCh, 0.1% (w/v) bacitracin (Research Products), 0.003% (w/v) Polyoxyethylenesorbitan monolaurate (TWEEN®-20), and Roche Complete™ Protease Inhibitors without EDTA. […] Plates are sealed and mixed on a plate shaker (setting 6) for 1 minute and read with a PerkinElmer Trilux MicroBeta® scintillation counter after 12 hours of incubation/settling time at room temperature.
Data are analyzed using four-parameter (curve maximum, curve minimum, IC₅₀, Hill slope) nonlinear regression routines (Genedata Screener, version 12.0.4, Genedata AG, Basal, Switzerland). […] Values for Kᵢ are reported as the geometric mean, with error expressed as the standard error of the mean (SEM) and n is equal to the number of independent replicates (determined in assays performed on different days).

T3 sequence (P47871 26-477): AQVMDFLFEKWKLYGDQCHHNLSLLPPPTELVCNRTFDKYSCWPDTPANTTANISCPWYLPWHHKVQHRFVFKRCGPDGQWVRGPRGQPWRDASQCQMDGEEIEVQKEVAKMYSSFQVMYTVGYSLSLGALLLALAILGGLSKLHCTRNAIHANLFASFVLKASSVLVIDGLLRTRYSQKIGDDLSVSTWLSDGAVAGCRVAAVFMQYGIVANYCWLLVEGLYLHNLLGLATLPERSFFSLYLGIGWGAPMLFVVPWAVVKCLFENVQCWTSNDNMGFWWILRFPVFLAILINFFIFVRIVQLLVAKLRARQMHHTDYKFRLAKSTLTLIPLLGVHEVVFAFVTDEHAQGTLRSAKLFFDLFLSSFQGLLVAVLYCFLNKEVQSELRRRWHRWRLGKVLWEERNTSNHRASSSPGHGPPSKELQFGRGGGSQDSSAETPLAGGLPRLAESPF

Going from B1 to B2, the Ki falls from 109 nM to 2.84 nM (38-fold).

First: B3
Second: B4
The Ki of the first is 25-fold lower: 14.4 nM for the first, 360 nM for the second.

First: B5
Second: B6
The Ki of the first is 1.7-fold higher: 6.28 nM for the first, 3.59 nM for the second.

Compared with B7, B8 is 3.2-fold higher in Ki: 16 nM for the first, 51.8 nM for the second. The first binds more tightly here.
